Experimental data reported in IntAct's records for PubMed 29039417.

B1: Protein PTHB1 (Homo sapiens), Q3SYG4 (parent)
chain: MSLFKARDWWSTILGDKEEFDQGCLCLANVDNSGNGQDKIIVGSFMGYLRIFSPHPAKTGDGAQAEDLLLEVDLRDPVLQVEVGKFVSGTEMLHLAVLHSRKLCVYSVSGTLGNVEHGNQCQMKLMYEHNLQRTACNMTYGSFGGVKGRDLICIQSMDGMLMVFEQESYAFGRFLPGFLLPGPLAYSSRTDSFLTVSSCQQVESYKYQVLAFATDADKRQETEQQKLGSGKRLVVDWTLNIGEQALDICIVSFNQSASSVFVLGERNFFCLKDNGQIRFMKKLDWSPSCFLPYCSVSEGTINTLIGNHNNMLHIYQDVTLKWATQLPHIPVAVRVGCLHDLKGVIVTLSDDGHLQCSYLGTDPSLFQAPNVQSRELNYDELDVEMKELQKIIKDVNKSQGVWPMTEREDDLNVSVVVSPNFDSVSQATDVEVGTDLVPSVTVKVTLQNRVILQKAKLSVYVQPPLELTCDQFTFEFMTPDLTRTVSFSVYLKRSYTPSELEGNAVVSYSRPTDRNPDGIPRVIQCKFRLPLKLICLPGQPSKTASHKITIDTNKSPVSLLSLFPGFASQSDDDQVNVMGFHFLGGARITVLASKTSQRYRIQSEQFEDLWLITNELILRLQEYFEKQGVKDFACSFSGSIPLQEYFELIDHHFELRINGEKLEELLSERAVQFRAIQRRLLARFKDKTPAPLQHLDTLLDGTYKQVIALADAVEENQGNLFQSFTRLKSATHLVILLIALWQKLSADQVAILEAAFLPLQEDTQELGWEETVDAAISHLLKTCLSKSSKEQALNLNSQLNIPKDTSQLKKHITLLCDRLSKGGRLCLSTDAAAPQTMVMPGGCTTIPESDLEERSVEQDSTELFTNHRHLTAETPRPEVSPLQGVSE
partner: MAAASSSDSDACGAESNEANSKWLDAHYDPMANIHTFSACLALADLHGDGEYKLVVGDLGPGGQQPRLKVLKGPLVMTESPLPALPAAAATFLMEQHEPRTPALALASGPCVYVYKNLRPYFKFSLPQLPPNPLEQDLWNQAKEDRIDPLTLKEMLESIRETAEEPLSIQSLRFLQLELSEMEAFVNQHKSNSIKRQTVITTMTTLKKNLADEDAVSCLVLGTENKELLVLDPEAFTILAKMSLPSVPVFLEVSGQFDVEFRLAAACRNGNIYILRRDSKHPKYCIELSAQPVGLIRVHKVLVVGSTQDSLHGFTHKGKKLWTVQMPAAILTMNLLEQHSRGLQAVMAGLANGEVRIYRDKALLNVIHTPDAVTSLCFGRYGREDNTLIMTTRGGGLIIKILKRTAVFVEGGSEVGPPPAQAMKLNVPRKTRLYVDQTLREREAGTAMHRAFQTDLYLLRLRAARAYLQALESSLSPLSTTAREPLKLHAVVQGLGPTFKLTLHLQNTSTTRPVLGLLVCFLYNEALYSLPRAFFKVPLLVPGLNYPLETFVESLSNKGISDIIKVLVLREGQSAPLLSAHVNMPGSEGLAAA

Variants of: B1
Conditions: with bbs1_human BBS1, Q8NFJ9

Variant | effect of a mutation on the interaction
T549A | with no effect
E622K | disrupting interaction strength
P556E | with no effect
P556K | with no effect
Q447A | with no effect
R619A | with no effect
T688E | with no effect
R656E | with no effect
D696E | with no effect
F624A | with no effect
A455E | with no effect
A708E | with no effect
L665A | with no effect
E714A | with no effect
S558A | with no effect
S558E | with no effect
I451E | with no effect
I451A | with no effect
F582A | with no effect
D608K | with no effect
V415K | with no effect
I588E | with no effect

Variant | effect of a mutation on the interaction
P438E | with no effect
S568A | with no effect
S570K | with no effect
T496A | with no effect
L446K | with no effect
L446E | with no effect
R587E | with no effect
H546A | with no effect
R598S | disrupting interaction strength
F421K | with no effect
F673E | with no effect
L620F | disrupting interaction strength
F566K | with no effect
A690V | disrupting interaction strength
L583E | with no effect
L666E | with no effect
H694A | with no effect
P689A | with no effect
G638A | with no effect
L692A | with no effect
L457E | with no effect
L457K | with no effect

Variant | effect of a mutation on the interaction
L533K | with no effect
K542E | with no effect
S593K | with no effect
S458A | with no effect
L529E | with no effect
G518E | with no effect
G518K | with no effect
R726E | with no effect
L531E | with no effect
G565E | with no effect
S488K | with no effect
C525K | with no effect
A633V | disrupting interaction strength
L559E | with no effect
L616A | with no effect
P641K | with no effect
V416A | with no effect
V671K | with no effect
R514E | with no effect
V444E | with no effect

Results, then the variant that gave them:

effect of a mutation on the interaction | Variant
with no effect | L737K
with no effect | L727K
with no effect | L727E
with no effect | L808E
with no effect | K821E
with no effect | P802A
with no effect | L784A
with no effect | L793A
with no effect | E873A
with no effect | S785K
with no effect | V734A
with no effect | V749A
with no effect | D850E
with no effect | T865A
with no effect | T865K
with no effect | E857A
with no effect | K789E
with no effect | L870E
with no effect | L825E
with no effect | V885E
with no effect | V885K
with no effect | T813E
with no effect | V856A
with no effect | Q791E
with no effect | S880E
with no effect | L863K
with no effect | D773A
with no effect | T836A
